Measurements from US20040220079.

Columns and labels:
[1] = target: T1, peptide derived from the processing site of presenilin 1 (SVNM/AEGD)
T1 chain: SVNMAEGD

[2] = target: Native proteins
[3] = target: oxidized bovine insulin B chain, P01317
[4] = target: T2, synthetic peptide PS1-gamma (LVNMAEGD)
T2 chain: LVNMAEGD

[5] = target: T3, synthetic peptide derived from the APP beta-secretase site (SEVKM/DAEFR)
T3 chain: SEVKMDAEFR

[6] = target: T4, synthetic peptide derived from the APP beta-secretase site containing the Swedish mutation (SEVNL/DAEFR)
T4 chain: SEVNLDAEFR

[7] = target: T5, synthetic peptide Nch (VGSGVLLSRK)
T5 chain: VGSGVLLSRK

oxidized bovine insulin B chain, P01317, sequence (P01317 25-54): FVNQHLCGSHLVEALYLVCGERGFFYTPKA

B1: M2pd (modified M2 containing amino acids from Ala-8p to Ala326) (protein)
chain: TQHGIRLPLRSGLGGAPLGLRLPRETDEEPEEPGRRGSFVEMVDNLRGKSGQGYYVEMTVGSPPQTLNILVDTGSSNFAVGAAPHPFLHRYYQRQLSSTYRDLRKGVYVPYTQGKWEGELGTDLVSIPHGPNVTVRANIAAITESDKFFINGSNWEGILGLAYAEIARPDDSLEPFFDSLVKQTHVPNLFSLQLCGAGFPLNQSEVLASVGGSMIIGGIDHSLYTGSLWYTPIRREWYYEVIIVRVEINGQDLKMDCKEYNYDKSIVDSGTTNLRLPKKVFEAAVKSIKAASSTEKFPDGFWLGEQLVCWQAGTTPWNIFPVISLYLMGEVTNQSFRITILPQQYLRPVEDVATSQDDCYKFAISQSSTGTVMGAVIMEGFYVVFDRARKRIGFAVSACHVHDEFRTAAVEGPFVTLDMEDCGYNIPQTDESTLMTIAYVMAAICALFMLPLCLMVCQWRCLRCLRQQHDDFADDISLLK
In the case of B1, the Km [1] is reported as “Km, 15.2 mM”, the kcat [1] is reported as “kcat, 0.67 s^-1” and the kcat/Km [1] is reported as “kcat/Km, 43.8 s^-1M^-1”. For the same protein, the cleavage of proteins [2] was “Native proteins were not cleaved by M2pd”, the hydrolytic sites [3] was 2 sites and the hydrolytic sites [4] was “A single cleavage site was observed in synthetic peptide PS1-gamma”. The kcat/Km [5] was “kcat/Km, 39.9 s^-1M^-1”, the Km [6] was “Km, 1 mM” and the “fold increase of kcat/Km over native APP” value [6] was 60-fold increase of kcat/Km over that for native APP. For the same protein, the kcat [6] was “kcat, 2.45 s^-1”, the kcat/Km [6] was “kcat/Km, 2450 s^-1M^-” and the hydrolytic sites [7] was 3 sites.
